# Results reported in patent US20240309113A1 (SUZHOU TRANSCENTA THERAPEUTICS, published 2024).
# T1: Recombinant Human MASP-1 (human, UniProt P48740 20-699, limits assumed)
# T1 construct: Bought protein, construct not described
# T1 sequence (looked up): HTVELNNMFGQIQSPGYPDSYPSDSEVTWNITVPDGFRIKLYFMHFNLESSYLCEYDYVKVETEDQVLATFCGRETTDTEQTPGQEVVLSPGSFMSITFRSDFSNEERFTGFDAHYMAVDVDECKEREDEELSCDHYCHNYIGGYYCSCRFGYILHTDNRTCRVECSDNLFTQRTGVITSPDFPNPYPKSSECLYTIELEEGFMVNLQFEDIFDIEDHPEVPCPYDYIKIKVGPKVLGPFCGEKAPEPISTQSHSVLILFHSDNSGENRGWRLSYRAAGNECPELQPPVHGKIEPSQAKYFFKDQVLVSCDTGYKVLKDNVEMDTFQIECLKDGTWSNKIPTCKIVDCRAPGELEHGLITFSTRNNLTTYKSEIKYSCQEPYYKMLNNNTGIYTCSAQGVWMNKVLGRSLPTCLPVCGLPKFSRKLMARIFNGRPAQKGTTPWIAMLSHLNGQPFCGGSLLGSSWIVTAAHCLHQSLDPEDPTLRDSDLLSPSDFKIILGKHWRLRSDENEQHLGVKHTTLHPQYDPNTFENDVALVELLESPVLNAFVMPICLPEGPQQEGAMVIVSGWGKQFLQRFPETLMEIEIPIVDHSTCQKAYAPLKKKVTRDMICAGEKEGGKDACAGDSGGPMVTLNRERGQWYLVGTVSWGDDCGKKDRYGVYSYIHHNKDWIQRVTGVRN
# T2: Recombinant Human Complement Component C1s (human, UniProt P09871 16-688, limits assumed)
# T2 construct: Bought protein, construct not described; also called human C1s
# T2 sequence (looked up): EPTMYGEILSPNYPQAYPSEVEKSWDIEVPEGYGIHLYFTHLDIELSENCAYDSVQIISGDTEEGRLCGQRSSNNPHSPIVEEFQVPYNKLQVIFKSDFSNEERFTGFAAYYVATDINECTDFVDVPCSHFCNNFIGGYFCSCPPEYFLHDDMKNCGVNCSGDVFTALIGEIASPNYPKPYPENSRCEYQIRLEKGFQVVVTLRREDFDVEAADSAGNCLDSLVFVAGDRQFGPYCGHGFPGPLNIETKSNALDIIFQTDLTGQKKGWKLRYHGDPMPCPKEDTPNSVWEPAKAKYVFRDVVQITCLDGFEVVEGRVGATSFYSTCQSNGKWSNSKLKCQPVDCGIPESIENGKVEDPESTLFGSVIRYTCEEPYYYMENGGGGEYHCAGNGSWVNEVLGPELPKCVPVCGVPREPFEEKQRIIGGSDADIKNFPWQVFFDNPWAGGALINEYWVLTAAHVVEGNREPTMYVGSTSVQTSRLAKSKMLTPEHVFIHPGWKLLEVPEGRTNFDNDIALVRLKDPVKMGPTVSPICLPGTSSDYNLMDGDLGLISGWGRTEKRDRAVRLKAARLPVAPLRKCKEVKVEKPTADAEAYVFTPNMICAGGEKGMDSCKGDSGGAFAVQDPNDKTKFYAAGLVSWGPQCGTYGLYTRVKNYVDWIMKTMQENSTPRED
# T3: Recombinant Human MASP-3 (human, UniProt P48740-2 20-728, limits assumed)
# T3 construct: Bought protein, construct not described
# T3 sequence (looked up): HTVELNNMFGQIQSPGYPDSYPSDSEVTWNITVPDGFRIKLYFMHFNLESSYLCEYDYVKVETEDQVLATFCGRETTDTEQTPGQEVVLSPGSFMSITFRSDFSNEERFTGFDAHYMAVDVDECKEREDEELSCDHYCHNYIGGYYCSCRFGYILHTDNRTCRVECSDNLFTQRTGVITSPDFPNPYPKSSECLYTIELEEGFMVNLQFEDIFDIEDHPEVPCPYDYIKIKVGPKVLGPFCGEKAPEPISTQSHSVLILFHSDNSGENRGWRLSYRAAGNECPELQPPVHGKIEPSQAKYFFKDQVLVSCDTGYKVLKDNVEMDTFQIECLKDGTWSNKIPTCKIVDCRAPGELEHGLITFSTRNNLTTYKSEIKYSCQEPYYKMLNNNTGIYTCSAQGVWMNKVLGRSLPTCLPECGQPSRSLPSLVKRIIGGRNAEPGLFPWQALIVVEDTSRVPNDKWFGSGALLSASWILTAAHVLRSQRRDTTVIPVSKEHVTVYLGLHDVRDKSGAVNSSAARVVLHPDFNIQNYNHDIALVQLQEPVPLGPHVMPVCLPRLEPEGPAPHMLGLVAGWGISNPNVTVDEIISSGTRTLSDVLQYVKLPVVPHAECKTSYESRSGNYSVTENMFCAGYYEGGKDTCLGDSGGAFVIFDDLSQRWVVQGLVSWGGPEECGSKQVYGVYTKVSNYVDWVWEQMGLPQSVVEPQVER
# Tests used:
# [1] = target: T4, human MASP-2 protein (recombinant, full-length, C-terminal tag) (human, UniProt O00187 16-686); assay: BLI (ForteBio Octet RED96), antibody on Protein A biosensor, human MASP-2 in solution (100, 50, 25 nM)
# T4 construct: The protein was secreted and purified on an anti-FLAG or anti-HIS column; also called hMASP-2; Full-length human MASP-2 protein; not shown: C-terminal HIS-tag or FLAG-tag
# [2] = target: T4, human MASP-2 protein (recombinant, …); assay: ELISA; plate coated with human MASP2 (1 ug/ml), serially diluted antibody, mouse anti-human IgG4 Fc HRP, OD450
# [3] = target: T5, Rat MASP2 (rat, UniProt Q9JJS8); assay: ELISA; plate coated with rat MASP2 (1 ug/ml), serially diluted antibody, mouse anti-human IgG4 Fc HRP, OD450 (fit value printed for a flat curve)
# T5 construct: purchased protein coated on the ELISA plate at 1 ug/ml
# [4] = target: T4, human MASP-2 protein (recombinant, …); assay: ELISA; plate coated with human MASP2, serially diluted antibody, anti-human IgG4 HRP, OD at 450nm; concentration axis printed as 'Antibody conc.(nM)'
# [5] = target: T6, Human FcRn (FCGRT&B2M) protein with His tag (human, UniProt P55899 24-297; P61769 21-119); assay: BLI (ForteBio), His-tagged human FcRn on Ni-NTA biosensor, antibody in solution (500, 167, 56, 19 nM)
# T6 construct: Carries a His tag (held on Ni-NTA biosensors)
# [6] = target: T7, Cyno MASP2; assay: ELISA; plate coated with cynomolgus MASP2 (1 ug/ml), serially diluted antibody, mouse anti-human IgG4 Fc HRP, OD450
# T7 construct: Recombinant coated protein; distinct from m29 (native MASP-2 in cynomolgus serum); also called cynomolgus MASP-2 (recombinant, generated in house)
# [7] = target: T1, Recombinant Human MASP-1; assay: ELISA; plate coated with recombinant human MASP-1, mouse anti-human IgG4 HRP, OD450
# [8] = target: T8, Mouse MASP2 (mouse, UniProt Q91WP0); assay: ELISA; plate coated with mouse MASP2 (1 ug/ml), serially diluted antibody, mouse anti-human IgG4 Fc HRP, OD450 (fit value printed for a flat curve)
# T8 construct: purchased protein coated on the ELISA plate at 1 ug/ml
# [9] = target: T2, Recombinant Human Complement Component …; assay: ELISA; plate coated with recombinant human C1s, serially diluted antibody, mouse anti-human IgG4 HRP, OD450 (fit value printed for a flat curve)
# [10] = target: T3, Recombinant Human MASP-3; assay: ELISA; plate coated with recombinant human MASP-3, mouse anti-human IgG4 HRP, OD450
# [11] = target: T6, Human FcRn (FCGRT&B2M) protein with His …; assay: BLI (ForteBio), His-tagged human FcRn on Ni-NTA biosensor
# T4 sequence (O00187 16-686): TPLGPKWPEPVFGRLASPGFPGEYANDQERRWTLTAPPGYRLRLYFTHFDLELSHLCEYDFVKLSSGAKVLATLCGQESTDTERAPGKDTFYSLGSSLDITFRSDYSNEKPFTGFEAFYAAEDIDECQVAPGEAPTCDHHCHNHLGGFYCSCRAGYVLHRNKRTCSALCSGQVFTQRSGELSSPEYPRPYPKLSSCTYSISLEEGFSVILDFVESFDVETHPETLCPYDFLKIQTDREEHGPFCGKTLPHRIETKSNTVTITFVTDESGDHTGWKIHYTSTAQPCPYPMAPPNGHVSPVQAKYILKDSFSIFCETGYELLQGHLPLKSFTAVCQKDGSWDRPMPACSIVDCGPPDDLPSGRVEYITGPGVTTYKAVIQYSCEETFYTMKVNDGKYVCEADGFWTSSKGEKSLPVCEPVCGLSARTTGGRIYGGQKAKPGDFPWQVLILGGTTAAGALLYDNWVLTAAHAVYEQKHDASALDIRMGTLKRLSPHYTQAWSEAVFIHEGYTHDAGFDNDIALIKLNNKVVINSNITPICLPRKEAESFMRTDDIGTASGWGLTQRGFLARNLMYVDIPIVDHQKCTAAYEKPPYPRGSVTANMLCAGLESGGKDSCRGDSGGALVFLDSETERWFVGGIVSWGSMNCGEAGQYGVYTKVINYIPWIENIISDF
# T7 sequence (MASP-2 polypeptide, as listed by the source limits assumed): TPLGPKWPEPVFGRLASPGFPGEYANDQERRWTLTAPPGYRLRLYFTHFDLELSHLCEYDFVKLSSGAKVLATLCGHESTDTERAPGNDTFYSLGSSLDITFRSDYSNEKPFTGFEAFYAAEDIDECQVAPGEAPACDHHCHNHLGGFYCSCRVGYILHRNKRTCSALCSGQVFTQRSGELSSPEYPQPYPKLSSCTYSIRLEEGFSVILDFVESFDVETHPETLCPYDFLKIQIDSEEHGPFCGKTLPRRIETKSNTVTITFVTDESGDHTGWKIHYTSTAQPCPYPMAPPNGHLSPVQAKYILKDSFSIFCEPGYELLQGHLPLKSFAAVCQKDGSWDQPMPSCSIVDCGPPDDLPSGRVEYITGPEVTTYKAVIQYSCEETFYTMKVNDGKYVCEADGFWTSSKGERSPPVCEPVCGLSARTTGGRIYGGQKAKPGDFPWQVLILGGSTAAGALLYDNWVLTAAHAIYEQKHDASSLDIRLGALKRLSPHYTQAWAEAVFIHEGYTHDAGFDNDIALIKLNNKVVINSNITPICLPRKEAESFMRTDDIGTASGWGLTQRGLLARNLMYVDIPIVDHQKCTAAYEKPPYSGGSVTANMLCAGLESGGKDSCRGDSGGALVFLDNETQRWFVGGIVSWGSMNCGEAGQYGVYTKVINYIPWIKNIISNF
# T8 sequence (Q91WP0 20-685 limits assumed): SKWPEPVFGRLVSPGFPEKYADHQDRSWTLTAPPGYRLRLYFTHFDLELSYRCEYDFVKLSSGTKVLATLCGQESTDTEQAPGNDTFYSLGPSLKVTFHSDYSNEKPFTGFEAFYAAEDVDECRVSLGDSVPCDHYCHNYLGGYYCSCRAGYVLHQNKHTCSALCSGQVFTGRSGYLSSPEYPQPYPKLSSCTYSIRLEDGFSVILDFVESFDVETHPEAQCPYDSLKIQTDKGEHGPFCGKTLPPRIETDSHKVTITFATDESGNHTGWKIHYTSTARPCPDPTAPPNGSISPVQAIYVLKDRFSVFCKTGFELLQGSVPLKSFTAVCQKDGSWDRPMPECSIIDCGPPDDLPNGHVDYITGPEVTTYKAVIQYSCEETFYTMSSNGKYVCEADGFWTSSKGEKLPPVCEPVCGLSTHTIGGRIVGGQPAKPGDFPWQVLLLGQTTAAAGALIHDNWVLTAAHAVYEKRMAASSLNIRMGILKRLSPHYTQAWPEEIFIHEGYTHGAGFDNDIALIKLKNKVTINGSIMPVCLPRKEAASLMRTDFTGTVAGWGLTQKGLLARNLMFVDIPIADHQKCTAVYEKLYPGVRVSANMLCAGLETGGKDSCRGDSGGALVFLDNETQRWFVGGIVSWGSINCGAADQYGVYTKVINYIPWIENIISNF
# T5 sequence (Q9JJS8 20-685 limits assumed): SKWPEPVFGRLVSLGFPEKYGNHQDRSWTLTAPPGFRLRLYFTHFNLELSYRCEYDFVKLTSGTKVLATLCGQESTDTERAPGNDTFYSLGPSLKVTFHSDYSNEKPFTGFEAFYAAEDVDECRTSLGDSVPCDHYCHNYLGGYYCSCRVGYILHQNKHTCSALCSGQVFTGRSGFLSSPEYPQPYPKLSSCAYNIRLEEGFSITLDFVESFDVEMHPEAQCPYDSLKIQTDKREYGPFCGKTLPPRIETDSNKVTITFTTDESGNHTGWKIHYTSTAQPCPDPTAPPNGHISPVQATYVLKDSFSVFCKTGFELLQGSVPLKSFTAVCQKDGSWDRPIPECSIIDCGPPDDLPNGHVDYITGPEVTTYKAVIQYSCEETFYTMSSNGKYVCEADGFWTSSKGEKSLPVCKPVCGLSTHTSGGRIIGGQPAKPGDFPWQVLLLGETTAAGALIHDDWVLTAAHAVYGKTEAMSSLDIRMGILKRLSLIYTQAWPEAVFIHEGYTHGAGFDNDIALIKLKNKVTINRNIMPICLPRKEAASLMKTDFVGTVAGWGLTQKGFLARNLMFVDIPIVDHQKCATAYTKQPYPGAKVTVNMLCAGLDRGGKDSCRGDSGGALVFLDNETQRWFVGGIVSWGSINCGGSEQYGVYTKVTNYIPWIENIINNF
Kd [1] [nM],koff [1] [s⁻¹],kon [1] [M⁻¹ s⁻¹],EC50 [2] [µg/mL],EC50 [3] [µg/mL],EC50 [4] [nM],Kd [5] [nM],koff [5] [s⁻¹],kon [5] [M⁻¹ s⁻¹],EC50 [6] [µg/mL],binding result [7],EC50 [8] [µg/mL],EC50 [9] [µg/mL],binding result [10],fold increase of binding affinity against 129C10-hu [11] [fold],Binder
< 0.001,< 1e-07,35300,0.0127,17.2,0.0162,6.1,0.00317,520000,0.0111,no binding (tested: about 2 ug/ml),~672,~1.65,no binding (tested: about 2 ug/ml),–,"129C10 HaLa (129C10-hu) (antibody, human IgG4, Humanized; also called 129C10-hu-WT; Hu129C10_HaLa-hIgG4) VH: not shown VL: DVVMTQSPLSLPVTLGQPASISCKSSQSLLYSNGKTYLNWLQQRPGQSPRRLIYLVSKLDSGVPDRFSGSGSGTDFTLKISRVEAEDVGVYYCVQVTHFPFTFGQGTKLEIKRTVAAPSVFIFPPSDEQLKSGTASVVCLLNNFYPREAKVQWKVDNALQSGNSQESVTEQDSKDSTYSLSSTLTLSKADYEKHKVYACEVTHQGLSSPVTKSFNRGEC"
–,–,–,–,–,–,1.88,0.00101,536000,–,–,–,–,–,3,"129C10-hu-YTE (Hu129C10 hIgG4_YTE kappa) (antibody, also called Hu129C10_HaLa-hIgG4 with amino acid substitutions M252Y/S254T/T256E [YTE]) heavy: QVQLVQSGAEVKKPGASVKVSCKASGYTFTDYYINWVRQAPGQGLEWMGWIFPGSESAYHSEKFKARVTMTVDTSISTAYMELSRLRSDDTAVYYCTRGDRSGPFAYWGQGTLVTVSSASTKGPSVFPLAPCSRSTSESTAALGCLVKDYFPEPVTVSWNSGALTSGVHTFPAVLQSSGLYSLSSVVTVPSSSLGTKTYTCNVDHKPSNTKVDKRVESKYGPPCPPCPAPEFLGGPSVFLFPPKPKDTLYITREPEVTCVVVDVSQEDPEVQFNWYVDGVEVHNAKTKPREEQFNSTYRVVSVLTVLHQDWLNGKEYKCKVSNKGLPSSIEKTISKAKGQPREPQVYTLPPSQEEMTKNQVSLTCLVKGFYPSDIAVEWESNGQPENNYKTTPPVLDSDGSFFLYSRLTVDKSRWQEGNVFSCSVMHEALHNHYTQKSLSLSLGK light: DVVMTQSPLSLPVTLGQPASISCKSSQSLLYSNGKTYLNWLQQRPGQSPRRLIYLVSKLDSGVPDRFSGSGSGTDFTLKISRVEAEDVGVYYCVQVTHFPFTFGQGTKLEIKRTVAAPSVFIFPPSDEQLKSGTASVVCLLNNFYPREAKVQWKVDNALQSGNSQESVTEQDSKDSTYSLSSTLTLSKADYEKHKVYACEVTHQGLSSPVTKSFNRGEC"
